Source: publication PMC7697860
Read-outs that look alike come from different tables or passages of the source.

Experiments:
[1] = target: GST-PfPV1 (wheat germ cell-free expression) (Plasmodium falciparum 3D7); experiment: SPR; […] (amine coupling), […]; Biacore X100, single-cycle kinetics, 1:1; HBS-EP+ (10 mM HEPES pH 7.4, 150 mM NaCl, 3 mM EDTA, 0.05% P20)
[2] = target: GST-PfPV1 (wheat germ cell-free expression) (Plasmodium falciparum 3D7); experiment: as above; remark: listed apart in the source

Row | Substance | Kd [1] | koff [1] | kon [1] | Kd [2]
1 | GST-EXP2 (natural protein) | 0.11 µM | 0.000989 s⁻¹ | 9030 M⁻¹ s⁻¹ | –
2 | GST-PTEX150 (natural protein) | 0.0545 µM | 0.00204 s⁻¹ | 37300 M⁻¹ s⁻¹ | 0.0546 µM
3 | GST-HSP101 (natural protein) | 0.0105 µM | 0.000914 s⁻¹ | 87000 M⁻¹ s⁻¹ | –
